Measured values from the DeepSol protein solubility set.

Test: soluble on expression in E. coli; label from the status in PepcDB or PDB records

Sequence | soluble on expression in E. coli
VNEIVVNPNATLDWQLALRQAAGKTDLARDMLQMLLDFLPEVRNKVEEQLVGENPEGLVDLIHKLHGSCGYSGVPRMKNLCQLIEQQLRSGTKEEDLEPELLELLDEMDNVAREASKILG | soluble
VPEKFKLSTALMDVLGIEVETRPRIIAAIWHYVKARKLQNPNDPSFFNCDAALQKVFGEEKLKFTMVSQKISHHLSPPPP | soluble
VPMHPFVKALQEHFTAHQNPEKAEPMARYMKNHFLFLGIQTPERRQLLKDIIQIHTLPDQKDFQIIIRELWDLPEREFQAAALDIMQKYKKHINETHIPFLEELIVTKSWWDSVDSIVPTFLGDIFLKHPELISAYIPKWIASDNIWLQRAAILFQLKYKQKMDEELLFWIIGQLHSSKEFFIQKAIGWVLREYAKTNPDVVWEYVQNNELAPLSKREAIKHIKQNYGINNEKIGETLS | soluble
VPVPPAADHKGWDFVEGYFHQFFLTKKESPLLTQETQTQLLQQFHRNGTDLLDMQMHALLHQPHCGVPDGSDTSISPGRCKWNKHTLTYRIINYPHDMKPSAVKDSIYNAVSIWSNVTPLIFQQVQNGDADIKVSFWQWAHEDGWPFDGPGGILGHAFLPNSGNPGVVHFDKNEHWSASDTGYNLFLVATHEIGHSLGLQHSGNQSSIMYPTYWYHDPRTFQLSADDIQRIQHLYGEKCSSDIP | soluble
VQAANLMDRIKANPVSEKNIDEKFIYNTADFSIELFKNSIDDKENSLISPLSAMLALAMTANGADNETLAQMEKALGKDISIEDLNKYLYTYMKKLPNEEKSKLTIANSIWFKENDFMPSKDFLQIIADYYKADIFKAAFDSSTVSDINNWVKSKTNGMIDKILNKIDPEDVMYLINAVAFDAEWETVYEKASVHEDIFTDVYGNRQKVEFMNSEENLYIEEENAIGFVKPYAKNHYSFVAILPDENISVNEYIKTLTGQKFIDLIKNAKITLVRASLPKFKYEYTIKMNETLESLGMTDAFLPDKADFSKLGKSDIGNLYISEVLHKTFISVDELGTKAGAVTSVDITAAGIPVNFKTVKLNRPFIFAIIDNSTNLPIFIGTVLSL | soluble
VRKCLSDTDCTNGEKCVQKNKICSTIVEIQRCEKEHFTIPCKSNNDCQVWAHEKICNKGCCWDLL | soluble
VRWIVDGMNVIGSRPDGWWRDRHRAMVMLVERLEGWAITKARGDDVTVVFERPPSTAIPSSVVEVAHAPKAAANSADDEIVRLVRSGAQPQEIRVVTSDKALTDRVRDLGAAVYPAERFRDLIDPRGSNAARRTQ | soluble
VSGREPSSRIIRVSVKTPQDCHEFFLAENSNVRRFKKQISKYLHCNADRLVLIFTGKILRDQDILSQRGILDGSTVHVVVRSH | soluble
VSSQKTSSLPKYTPKVNSSINNYIRKKNMKAPRIEEDYTSYFPKYGYRNGVGRPEGIVVHDTANDNSTIDGEIAFMKRNYTNAFVHAFVDGNRIIETAPTDYLSWGAGPYGNQRFINVEIVHTHDYDSFARSMNNYADYAATQLQYYNLKPDSAENDGRGTVWTHAAISNFLGGTDHADPHQYLRSHNYSYAELYDLIYEKYLIKTKQVAPWG | soluble
VSTLSKEQVKEIIKGNNFQSVADVSAYLRDIFKDIIQELLEAELEAKLGYAKDDVENKNTDNSRNGYSPKTIKSEFREVEIQVPRDRKGEFKPQIIPKYQRNVSGIEEKVIALYARGMSTRDISEQIEELYGFSLSPEMVSKITDRIAPEIKEWQQRPLEPIYTFVFMDEIH | soluble
VTEEEIHAMLEEGSVAGIIEQQEHEMVRNVFRLDDRQLGSLMVPRADIIYLDTALPLEENMKRVVESEHSRFPVCHNGLQSLLGVVNAKQLLAQTIKGGVTNLAEHLQPCVYVPETLTGMELLDHFRTSGTQMVFVVDEYGEIQGLVTLQDMLEAVTGEFA | not soluble
VVGGTDADEGEWPWQVSLHALGQGHICGASLISPNWLVSAAHCYIDDRGFRYSDPTQWTAFLGLHDQSQRSAPGVQERRLKRIISHPFFNDFTFDYDIALLELEKPAEYSSMVRPISLPDASHVFPAGKAIWVTGWGHTQYGGTGALILQKGEIRVINQTTCENLLPQQITPRMMCVGFLSGGVDSCQGDSGGPLSSVEADGRIFQAGVVSWGDGCAQRNKPGVYTRLPLFRDWIKENTGV | soluble
